Holding throughout (assay): FP filter
Data set [1] has as its system TZ05 DNA polymerase (Thermus species Z05). The note with it: 55C.
In data set [2] the target is Taq DNA polymerase (Thermus aquaticus) (UniProt P19821).
Data set [3] has as its target Tth DNA polymerase (Thermus thermophilus) (UniProt P52028).

Tth DNA polymerase (Thermus thermophilus), sequence (P52028 whole entry): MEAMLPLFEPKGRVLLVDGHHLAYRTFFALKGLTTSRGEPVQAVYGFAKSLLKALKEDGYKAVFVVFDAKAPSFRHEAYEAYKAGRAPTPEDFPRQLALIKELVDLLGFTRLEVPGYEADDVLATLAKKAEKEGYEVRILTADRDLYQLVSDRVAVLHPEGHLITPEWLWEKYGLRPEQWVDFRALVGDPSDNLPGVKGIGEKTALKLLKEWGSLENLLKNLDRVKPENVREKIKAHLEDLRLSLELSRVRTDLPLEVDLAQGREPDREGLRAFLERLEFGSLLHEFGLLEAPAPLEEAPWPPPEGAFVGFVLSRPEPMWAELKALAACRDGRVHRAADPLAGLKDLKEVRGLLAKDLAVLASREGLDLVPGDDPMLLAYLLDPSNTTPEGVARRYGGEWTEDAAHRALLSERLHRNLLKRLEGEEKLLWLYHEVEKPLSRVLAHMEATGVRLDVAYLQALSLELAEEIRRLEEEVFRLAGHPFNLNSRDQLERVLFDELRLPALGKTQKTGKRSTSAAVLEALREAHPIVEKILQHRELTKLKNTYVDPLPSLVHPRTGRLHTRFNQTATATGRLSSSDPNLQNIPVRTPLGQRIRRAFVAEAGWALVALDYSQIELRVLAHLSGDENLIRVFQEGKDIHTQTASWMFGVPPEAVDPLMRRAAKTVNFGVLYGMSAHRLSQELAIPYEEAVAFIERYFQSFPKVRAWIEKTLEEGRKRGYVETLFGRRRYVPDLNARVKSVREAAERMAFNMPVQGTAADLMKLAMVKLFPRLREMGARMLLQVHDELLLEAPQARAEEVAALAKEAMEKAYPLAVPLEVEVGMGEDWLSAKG
Taq DNA polymerase (Thermus aquaticus), sequence (P19821 whole entry): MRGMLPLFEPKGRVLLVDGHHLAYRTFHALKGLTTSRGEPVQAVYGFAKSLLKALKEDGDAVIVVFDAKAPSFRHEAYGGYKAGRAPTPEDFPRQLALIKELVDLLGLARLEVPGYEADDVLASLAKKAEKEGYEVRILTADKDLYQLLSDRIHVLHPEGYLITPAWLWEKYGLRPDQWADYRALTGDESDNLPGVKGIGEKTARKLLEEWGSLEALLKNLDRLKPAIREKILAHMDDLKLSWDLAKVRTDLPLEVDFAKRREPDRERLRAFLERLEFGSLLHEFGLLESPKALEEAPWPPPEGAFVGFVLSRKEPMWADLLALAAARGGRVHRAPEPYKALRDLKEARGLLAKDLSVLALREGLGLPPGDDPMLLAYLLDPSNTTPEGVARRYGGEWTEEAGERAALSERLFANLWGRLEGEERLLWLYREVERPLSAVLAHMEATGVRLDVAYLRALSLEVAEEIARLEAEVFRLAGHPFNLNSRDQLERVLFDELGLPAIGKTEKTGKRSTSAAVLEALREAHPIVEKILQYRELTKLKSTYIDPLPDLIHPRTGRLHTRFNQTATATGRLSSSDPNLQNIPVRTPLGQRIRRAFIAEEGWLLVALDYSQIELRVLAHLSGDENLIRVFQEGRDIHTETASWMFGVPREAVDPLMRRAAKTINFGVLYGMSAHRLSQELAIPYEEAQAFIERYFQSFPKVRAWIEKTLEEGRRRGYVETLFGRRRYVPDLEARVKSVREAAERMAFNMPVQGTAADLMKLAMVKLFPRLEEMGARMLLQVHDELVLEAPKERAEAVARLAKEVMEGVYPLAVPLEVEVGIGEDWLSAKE

As to “TTCTCGGTTGGTCTCTGGCGGAGCACACCGGGGGGGCTGCGGGCAAGGCGGGTGTCTTGTGTATGATTCGCTTTTCCC [TZ1]”, the Kd in data set [1] (IT50 52.5C) stood at 0.016 nM.

In turn, “TTCTCGGTTGGTCTCTGGCGGAGCACGGGAGGGTGTGGAGTGGGTGGCGCGGGCTCTTGTGTATGATTCGCTTTTCCC [TZ36]” yielded a Kd in data set [1] (IT50 51C) of 0.02 nM.

As for “TTCTCGGTTGGTCTCTGGCGGAGCACGTCGGGGGGGCCCTGGGGACGGGCAGGCGTCTTGTGTATGATTCGCTTTTCCC [TZ26]”, the Kd in data set [1] (printed as >>500, IT50 41C) is over 0.5 nM.

In data set [1] (IT50 58.5C), “TTCTCGGTTGGTCTCTGGCGGAGCACGTCGGGGGGGCGTTGGGACGGGCAGACGTCTTGTGTATGATTCGCTTTTCCC [TZ13]” registered a Kd of 0.017 nM.

Take “TTCTCGGTTGGTCTCTGGCGGAGCATACACGACGTCATTCTAGCGTTTTGACGTCTTGTGTATGATTCGCTTTTCCC [ligand 22 (TQH22) / TZ3]”: the Kd in data set [1] (as TZ3, IT50 52C) was 0.009 nM.

The sequence “TTCTCGGTTGGTCTCTGGCGGAGCGAACATACGAAGACATTCCAACGTTTTGTCTTGTGTATGATTCGCTTTTCCC [TZ69]” yielded a Kd in data set [1] (IT50 46C) of 0.02 nM.

Turning to “TTCTCGGTTGGTCTCTGGCGGAGCGAAGCATACGAAGACATTCCAACGTTTTGTCTTGTGTATGATTCGCTTTTCCC [TZ8]”, the Kd in data set [1] (IT50 52C) amounted to 0.005 nM.

“TTCTCGGTTGGTCTCTGGCGGAGCGAAGCATACGAAGACATTCCAACGTTTTGTCTTGTGTATGATTCGCTTTTCCC [TZ54]”: in data set [1] (IT50 52C), the Kd worked out at 0.023 nM.

“TTCTCGGTTGGTCTCTGGCGGAGCGCGAGGGTGTGGCGTGGGTGGCGCGATCTTGTGTATGATTCGCTTTTCCC [TZ2]” had a Kd in data set [1] (printed as >>1000, IT50 <<35C) of over 1 nM.

The sequence “TTCTCGGTTGGTCTCTGGCGGAGCGGATCAGACACGAGACATTGCGGACTTTTGTCTTGTGTATGATTCGCTTTTCCC [TZ9]” had a dissociation constant (Kd) in data set [1] (IT50 52C) of 0.005 nM.

“TTCTCGGTTGGTCTCTGGCGGAGCNNNNNNNNNNNNNNNNNNNNNNNNNNNNNNTCTTGTGTATGATTCGCTTTTCCC [enriched Taq pool round 12]”: the Kd is 3.5 nM in data set [2] (Taq binding buffer, room temp) and 0.2 nM in data set [3] (cross binding, room temp).

On to “TTCTCGGTTGGTCTCTGGCGGAGCNNNNNNNNNNNNNNNNNNNNNNNNNNNNNNTCTTGTGTATGATTCGCTTTTCCC [enriched Tth pool round 10]”, for which the Kd in data set [2] (cross binding, saturates at about 50%) is 0.3 nM; in data set [3] (Tth binding buffer, room temp), 5 nM.

For the sequence “TTCTCGGTTGGTCTCTGGCGGAGCNNNNNNNNNNNNNNNNNNNNNNNNNNNNNNTCTTGTGTATGATTCGCTTTTCCC [random ssDNA pool]”, in data set [3] (50 mM Bicine pH 8.3, 90 mM KCl, 3.5 mM Mn(OAc)2, room temp), the Kd turned out to be 70 nM.

Values taken from patent publication US6183967.
